T1: FcγRIIb extracellular domain with C-terminal His tag (human, UniProt P31994 43-217)
T1 construct: extracellular domain; also called FcgRIIb; 2b
T1 sequence (looked up): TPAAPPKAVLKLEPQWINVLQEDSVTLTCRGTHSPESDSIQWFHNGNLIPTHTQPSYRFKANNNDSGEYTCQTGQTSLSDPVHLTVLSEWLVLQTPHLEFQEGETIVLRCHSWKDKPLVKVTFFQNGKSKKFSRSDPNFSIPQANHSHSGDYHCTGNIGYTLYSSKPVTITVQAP

T2: FcγRIIa R (human, UniProt P12318 34-217)
T2 construct: extracellular domain; also called FcgRIIa R type; 2aR
T2 sequence (looked up): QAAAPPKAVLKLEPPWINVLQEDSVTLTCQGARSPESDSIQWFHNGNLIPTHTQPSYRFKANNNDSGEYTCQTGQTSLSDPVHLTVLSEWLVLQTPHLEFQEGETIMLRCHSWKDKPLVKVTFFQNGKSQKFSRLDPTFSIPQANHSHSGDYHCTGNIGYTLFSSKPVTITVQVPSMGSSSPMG

B1: GpH7-B3 variant G237_02A/GpL16-k0 (antibody, human IgG1, kappa)
heavy: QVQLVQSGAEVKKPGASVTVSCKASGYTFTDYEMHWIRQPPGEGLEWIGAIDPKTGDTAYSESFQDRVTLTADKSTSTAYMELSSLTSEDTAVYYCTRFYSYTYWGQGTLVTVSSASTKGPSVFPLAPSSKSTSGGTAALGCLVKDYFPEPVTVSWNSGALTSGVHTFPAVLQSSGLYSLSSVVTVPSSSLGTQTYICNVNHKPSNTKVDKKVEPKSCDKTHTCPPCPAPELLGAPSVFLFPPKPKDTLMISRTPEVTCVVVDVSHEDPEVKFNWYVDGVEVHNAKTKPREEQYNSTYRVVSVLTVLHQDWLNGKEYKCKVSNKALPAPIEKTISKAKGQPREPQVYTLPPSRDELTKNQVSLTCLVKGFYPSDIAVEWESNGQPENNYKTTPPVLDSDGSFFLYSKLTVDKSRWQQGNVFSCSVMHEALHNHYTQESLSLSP
light: DIVMTQSPLSLPVTPGEPASISCQASESLVHSNRNTYLHWYLQKPGQSPQLLIYKVSNRFSGVPDRFSGSGSGTDFTLKISRVEAEDVGVYYCSQNTHVPPTFGQGTKVEIERTVAAPSVFIFPPSDEQLKSGTASVVCLLNNFYPREAKVQWKVDNALQSGNSQESVTEQDSKDSTYSLSSTLTLSKADYEKHKVYACEVTHQGLSSPVTKSFNRGEC
notes: also called Ho Ab G237_02A
B2: GpH7-B3 variant A327_18N/GpL16-k0 (antibody, human IgG1, kappa)
heavy: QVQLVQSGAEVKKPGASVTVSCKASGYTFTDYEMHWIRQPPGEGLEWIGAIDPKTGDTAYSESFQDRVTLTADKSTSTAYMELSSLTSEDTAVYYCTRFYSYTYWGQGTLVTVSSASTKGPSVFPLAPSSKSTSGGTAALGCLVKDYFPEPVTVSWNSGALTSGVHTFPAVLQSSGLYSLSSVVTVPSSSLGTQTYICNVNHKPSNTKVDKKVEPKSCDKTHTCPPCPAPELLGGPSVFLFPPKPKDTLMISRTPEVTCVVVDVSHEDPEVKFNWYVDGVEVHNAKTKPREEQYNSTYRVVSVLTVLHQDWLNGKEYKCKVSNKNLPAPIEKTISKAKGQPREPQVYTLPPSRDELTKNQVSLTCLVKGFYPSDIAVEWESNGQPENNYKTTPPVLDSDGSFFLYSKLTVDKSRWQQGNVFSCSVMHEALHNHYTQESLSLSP
light: B1 light
notes: also called Ho Ab A327_18N
B3: GpH7-B3 variant A327_07I/GpL16-k0 (antibody, human IgG1, kappa)
heavy: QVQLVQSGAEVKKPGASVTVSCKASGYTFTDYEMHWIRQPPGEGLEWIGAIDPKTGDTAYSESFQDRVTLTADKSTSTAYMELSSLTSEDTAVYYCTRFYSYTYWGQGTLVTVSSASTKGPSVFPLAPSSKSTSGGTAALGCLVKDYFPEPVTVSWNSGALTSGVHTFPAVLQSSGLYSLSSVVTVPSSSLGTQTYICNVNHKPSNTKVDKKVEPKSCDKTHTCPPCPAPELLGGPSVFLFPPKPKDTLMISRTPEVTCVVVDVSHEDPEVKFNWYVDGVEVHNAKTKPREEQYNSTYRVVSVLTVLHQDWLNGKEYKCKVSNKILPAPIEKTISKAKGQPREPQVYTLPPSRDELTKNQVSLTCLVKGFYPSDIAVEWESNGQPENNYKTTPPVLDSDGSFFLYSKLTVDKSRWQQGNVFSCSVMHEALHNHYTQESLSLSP
light: B1 light
notes: also called Ho Ab A327_07I
B4: GpH7-A5/GpH7-B3 variant L328_09D/GpL16-k0 (antibody, human IgG1, kappa)
heavy 1: not shown
heavy 2: not shown
light: B1 light
notes: also called He Ab L328_09D
B5: GpH7-A5/GpH7-B3 variant P331_04F/GpL16-k0 (antibody, human IgG1, kappa)
heavy 1: not shown
heavy 2: not shown
light: B1 light
notes: also called He Ab P331_04F
B6: GpH7-A5/GpH7-B3 variant K334_08L/GpL16-k0 (antibody, human IgG1, kappa)
heavy 1: not shown
heavy 2: not shown
light: B1 light
notes: also called He Ab K334_08L
B7: GpH7-A5/GpH7-B3 variant L235_09D/GpL16-k0 (antibody, human IgG1, kappa)
heavy 1: not shown
heavy 2: not shown
light: B1 light
notes: also called He Ab L235_09D
B8: GpH7-A5/GpH7-B3 variant L328_14T/GpL16-k0 (antibody, human IgG1, kappa)
heavy 1: not shown
heavy 2: not shown
light: B1 light
notes: also called He Ab L328_14T
B9: GpH7-A5/GpH7-B3 variant K334_19Q/GpL16-k0 (antibody, human IgG1, kappa)
heavy 1: not shown
heavy 2: not shown
light: B1 light
notes: also called He Ab K334_19Q
B10: GpH7-A5/GpH7-B3 variant L234_04F/GpL16-k0 (antibody, human IgG1, kappa)
heavy 1: not shown
heavy 2: not shown
light: B1 light
notes: also called He Ab L234_04F
B11: GpH7-A5/GpH7-B3 variant P271_10E/GpL16-k0 (antibody, human IgG1, kappa)
heavy 1: not shown
heavy 2: not shown
light: B1 light
notes: also called He Ab P271_10E
B12: GpH7-A5/GpH7-B3 variant P238_06M/GpL16-k0 (antibody, human IgG1, kappa)
heavy 1: not shown
heavy 2: not shown
light: B1 light
notes: also called He Ab P238_06M
B13: GpH7-A5/GpH7-B3 variant P238_19Q/GpL16-k0 (antibody, human IgG1, kappa)
heavy 1: not shown
heavy 2: not shown
light: B1 light
notes: also called He Ab P238_19Q
B14: GpH7-A5/GpH7-B3 variant P238_04F/GpL16-k0 (antibody, human IgG1, kappa)
heavy 1: not shown
heavy 2: not shown
light: B1 light
notes: also called He Ab P238_04F
B15: GpH7-A5/GpH7-B3 variant P271_09D/GpL16-k0 (antibody, human IgG1, kappa)
heavy 1: not shown
heavy 2: not shown
light: B1 light
notes: also called He Ab P271_09D
B16: GpH7-A5/GpH7-B3 variant P238_03V/GpL16-k0 (antibody, human IgG1, kappa)
heavy 1: not shown
heavy 2: not shown
light: B1 light
notes: also called He Ab P238_03V
B17: GpH7-A5/GpH7-B3 variant N325_04F/GpL16-k0 (antibody, human IgG1, kappa)
heavy 1: not shown
heavy 2: not shown
light: B1 light
notes: also called He Ab N325_04F
B18: GpH7-A5/GpH7-B3 variant L234_10E/GpL16-k0 (antibody, human IgG1, kappa)
heavy 1: not shown
heavy 2: not shown
light: B1 light
notes: also called He Ab L234_10E
B19: GpH7-A5/GpH7-B3 variant L235_15Y/GpL16-k0 (antibody, human IgG1, kappa)
heavy 1: not shown
heavy 2: not shown
light: B1 light
notes: also called He Ab L235_15Y
B20: GpH7-A5/GpH7-B3 variant L234_20W/GpL16-k0 (antibody, human IgG1, kappa)
heavy 1: not shown
heavy 2: not shown
light: B1 light
notes: also called He Ab L234_20W
B21: GpH7-A5/GpH7-B3 variant L235_04F/GpL16-k0 (antibody, human IgG1, kappa)
heavy 1: not shown
heavy 2: not shown
light: B1 light
notes: also called He Ab L235_04F
B22: GpH7-A5/GpH7-B3 variant K334_05P/GpL16-k0 (antibody, human IgG1, kappa)
heavy 1: not shown
heavy 2: not shown
light: B1 light
notes: also called He Ab K334_05P
B23: GpH7-A5/GpH7-B3 variant K334_12R/GpL16-k0 (antibody, human IgG1, kappa)
heavy 1: not shown
heavy 2: not shown
light: B1 light
notes: also called He Ab K334_12R
B24: GpH7-A5/GpH7-B3 variant P238_10E/GpL16-k0 (antibody, human IgG1, kappa)
heavy 1: not shown
heavy 2: not shown
light: B1 light
notes: also called He Ab P238_10E

For one assay, the target named is T1, FcγRIIb extracellular domain with …. Briefly: SPR (Biacore), relative binding. Here is the method:
Analysis of interaction between objective antibody and the FcγR was carried out using Biacore T100 (GE Healthcare). HBS-EP+ (GE Healthcare) was used as the running buffer, and the measurement temperature was set to 25° C. Chips produced by immobilizing the antigen peptide by the amine coupling method to a Series S Sencor Chip CM5 (GE Healthcare), or alternatively, chips produced by allowing preliminarily biotinylated antigen peptides to interact with and immobilize onto a Series S Sensor Chip SA (certified) (GE Healthcare) were used. Antibodies of interest were captured onto an antigen peptide-immobilized chip, and allowed to interact to each FcγR diluted with running buffer. To regenerate and repeatedly use the chip, the antibodies captured on the chip were washed off by reacting 10 mM glycine-HCl, pH 1.5.
For the molecule B1, the Ho/Con_2b was 47.8 % of HoCon Ab GpH7-B3/GpL16-k0. For the molecule B2, the Ho/Con_2b was 101 % of HoCon Ab GpH7-B3/GpL16-k0.

For the molecule B3, the Ho/Con_2b is 37.6 % of HoCon Ab GpH7-B3/GpL16-k0.

Another assay concerns the target T2, FcγRIIa R. The experiment in a line: SPR (Biacore), captured antibody, FcγR as analyte; relative binding activity.
On to B4, for which the He/Con_2aR is 119 % (GpH7-A5/GpH7-B3/GpL16-k0 = 100).

Consider B5, for which the He/Con_2aR was 111 % (GpH7-A5/GpH7-B3/GpL16-k0 = 100). Take B6: the He/Con_2aR was 106 % (GpH7-A5/GpH7-B3/GpL16-k0 = 100).

In the case of B7, the He/Con_2aR is 101 % (GpH7-A5/GpH7-B3/GpL16-k0 = 100). The same measure, in the same setting: then B8, with 119 % (GpH7-A5/GpH7-B3/GpL16-k0 = 100).

In the case of B9, the He/Con_2aR was 109 % (GpH7-A5/GpH7-B3/GpL16-k0 = 100). The same measure, in the same setting: then B10, with 104 % (GpH7-A5/GpH7-B3/GpL16-k0 = 100).

B11: the He/Con_2aR was 103 % (GpH7-A5/GpH7-B3/GpL16-k0 = 100). With B12, the He/Con_2aR was 139 % (GpH7-A5/GpH7-B3/GpL16-k0 = 100). For B13, the He/Con_2aR is 104 % (GpH7-A5/GpH7-B3/GpL16-k0 = 100). On the same count and under the same terms, then B14, with 174 % (GpH7-A5/GpH7-B3/GpL16-k0 = 100). The same measure, in the same setting: then B15, with 110 % (GpH7-A5/GpH7-B3/GpL16-k0 = 100); and B16, with 120 % (GpH7-A5/GpH7-B3/GpL16-k0 = 100). Still for that read-out and setting: then B17, with 120 % (GpH7-A5/GpH7-B3/GpL16-k0 = 100). In the case of B18, the He/Con_2aR was 112 % (GpH7-A5/GpH7-B3/GpL16-k0 = 100). Still for that read-out and setting: then B19, with 129 % (GpH7-A5/GpH7-B3/GpL16-k0 = 100); and B20, with 108 % (GpH7-A5/GpH7-B3/GpL16-k0 = 100); and B21, with 114 % (GpH7-A5/GpH7-B3/GpL16-k0 = 100). For B22, the He/Con_2aR was 103 % (GpH7-A5/GpH7-B3/GpL16-k0 = 100). For B23, the He/Con_2aR was 111 % (GpH7-A5/GpH7-B3/GpL16-k0 = 100). For the molecule B24, the He/Con_2aR is 151 % (GpH7-A5/GpH7-B3/GpL16-k0 = 100).

Source of the values: US20150344570A1 (published 2015).
